# Publication PMC11487604, “Selective, Intrinsically Fluorescent Trk Modulating Probes” (ACS Chemical Neuroscience, 2024)
# *1 amine or outer side, *2 acyl side, *3 side chain or, on linkers, in order; H or OH if unused. Where a SMILES comes first, the peptide text is derived from it. Bridges are numbered along the chain shown (N, C = ends). Where no end group is shown, it is not given here. sulfonated dichloro‑BODIPY dye = Sulfonated dichloro-BODIPY dye that cyclises the two flanking Cys through two SNAr reactions; sulfonated dichloro‑BODIPY = sulfonated dichloro-BODIPY dye attached to the two flanking Cys by SNAr reactions; X1 = COc1ccc(C2=C3C=C(S(=O)(=O)O)C([*:2])=[N+]3[B-](F)(F)n3c2cc(S(=O)(=O)O)c3[*:1])cc1
# Legend:
# [1] = system: primary adult cortical neurons; assay: Primary adult cortical neuron assay (neurite outgrowth and survival); type: cell-based, mouse; conditions: data not shown
# Text: We next decided to test the effects of 5c(ii) on primary mouse adult cortical neurons. These neurons naturally express TrkA[84] and therefore provide a more clinically relevant substrate to test compound leads in than analogous Trk-expressing transfectants. In addition, using neurons extracted from adult mice provide increased relevance to neurodegenerative and other nervous-system related diseases and injury, since most of these primarily occur in adult populations.[85],[86] To determine any potential for preclinical applications, 5c(ii) (5 μM) was incubated with primary cortical neurons from 6-week-old male mice at the time of plating, and neuronal survival and neurite outgrowth were quantified.
# Figure 7 5c(ii) promotes neuroprotection. Primary adult cortical neurons were extracted from 6-week-old male mice and plated on 384-well PDL-coated plastic bottom plates at 10,000 cells/well. 5c(ii) at 5 μM concentration was added at the time of plating. 48 h after plating, the cells were fixed to conduct immunocytochemistry. Graph represents the mean ± SEM of (a) total neurite outgrowth per cell and (b) number of valid neurons per well. Representative images of cortical neurons treated with (c) vehicle and (d) 5 μM 5c(ii). Student’s t test. N = 3–5. *p < 0.05.
# Cortical neuron assay was conducted as previously described.[85] Briefly, wild-type 6-week-old C57Bl/6 male mice were euthanized using CO2, and the brains were removed. The cortex was isolated and transferred to a MACS C-tube and then dissociated using the Miltenyi gentleMACS octo-dissociator on a preset protocol designed for adult rodent brains. […] Images were quantified using the Neurite Outgrowth Analysis Module in MetaXpress 6 software (Molecular Devices). For quantification, the number of valid neurons is determined by quantifying the number of TUBB3^+/DAPI^+ cells in a well with ≥10 μm of total neurite outgrowth. Total neurite outgrowth is determined by dividing the length of all neurites in a well by the number of valid neurons in that respective well. […]
# TrkC = conditions: cited from earlier work
# p75 = conditions: cited from earlier work
# [2] = target: TrkA-expressing cells (HeLa+A) (UniProt P04629); assay: Cell survival assay in serum-free media, TrkA-expressing cells (HeLa+A); type: cell-based; conditions: Figure 8 summary
# TrkA-expressing cells (HeLa+A), sequence (P04629 33-796): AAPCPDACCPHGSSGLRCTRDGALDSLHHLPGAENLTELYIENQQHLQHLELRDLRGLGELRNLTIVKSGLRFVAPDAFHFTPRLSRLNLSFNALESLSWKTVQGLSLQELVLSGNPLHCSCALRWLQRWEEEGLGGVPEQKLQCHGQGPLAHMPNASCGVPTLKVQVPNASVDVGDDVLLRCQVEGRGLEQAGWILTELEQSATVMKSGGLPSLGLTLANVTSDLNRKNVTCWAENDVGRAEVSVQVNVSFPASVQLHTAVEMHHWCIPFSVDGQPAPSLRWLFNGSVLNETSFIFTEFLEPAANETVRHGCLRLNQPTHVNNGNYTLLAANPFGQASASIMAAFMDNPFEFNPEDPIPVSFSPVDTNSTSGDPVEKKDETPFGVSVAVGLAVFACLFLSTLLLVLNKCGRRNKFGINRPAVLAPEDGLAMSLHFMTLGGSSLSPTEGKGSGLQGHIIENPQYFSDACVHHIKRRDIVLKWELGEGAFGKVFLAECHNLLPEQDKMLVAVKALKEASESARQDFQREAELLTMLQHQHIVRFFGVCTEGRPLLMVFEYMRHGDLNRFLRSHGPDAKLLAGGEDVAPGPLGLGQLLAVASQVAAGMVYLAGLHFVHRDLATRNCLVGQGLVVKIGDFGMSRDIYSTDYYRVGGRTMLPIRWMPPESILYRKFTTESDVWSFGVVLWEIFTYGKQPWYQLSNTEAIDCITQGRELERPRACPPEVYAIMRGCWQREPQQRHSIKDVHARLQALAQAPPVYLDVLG
# Experimental: Cells were seeded at a density of 2 × 10^3 cells/well in complete media in 96-well plates and incubated for 24 h to allow cells to adhere. Cells were washed with DPBS, and then, media were swapped for serum-free media of the same type as the complete media. […] Cells were suspended and live cells counted using flow cytometry (CytoFLEX LX).
# [3] = target: TrkB-expressing cells (HEK+B) (UniProt Q16620); assay: Cell survival assay in serum-free media, TrkB-expressing cells (HEK+B); type: cell-based; conditions: Figure 8 summary
# TrkB-expressing cells (HEK+B), sequence (Q16620 32-822): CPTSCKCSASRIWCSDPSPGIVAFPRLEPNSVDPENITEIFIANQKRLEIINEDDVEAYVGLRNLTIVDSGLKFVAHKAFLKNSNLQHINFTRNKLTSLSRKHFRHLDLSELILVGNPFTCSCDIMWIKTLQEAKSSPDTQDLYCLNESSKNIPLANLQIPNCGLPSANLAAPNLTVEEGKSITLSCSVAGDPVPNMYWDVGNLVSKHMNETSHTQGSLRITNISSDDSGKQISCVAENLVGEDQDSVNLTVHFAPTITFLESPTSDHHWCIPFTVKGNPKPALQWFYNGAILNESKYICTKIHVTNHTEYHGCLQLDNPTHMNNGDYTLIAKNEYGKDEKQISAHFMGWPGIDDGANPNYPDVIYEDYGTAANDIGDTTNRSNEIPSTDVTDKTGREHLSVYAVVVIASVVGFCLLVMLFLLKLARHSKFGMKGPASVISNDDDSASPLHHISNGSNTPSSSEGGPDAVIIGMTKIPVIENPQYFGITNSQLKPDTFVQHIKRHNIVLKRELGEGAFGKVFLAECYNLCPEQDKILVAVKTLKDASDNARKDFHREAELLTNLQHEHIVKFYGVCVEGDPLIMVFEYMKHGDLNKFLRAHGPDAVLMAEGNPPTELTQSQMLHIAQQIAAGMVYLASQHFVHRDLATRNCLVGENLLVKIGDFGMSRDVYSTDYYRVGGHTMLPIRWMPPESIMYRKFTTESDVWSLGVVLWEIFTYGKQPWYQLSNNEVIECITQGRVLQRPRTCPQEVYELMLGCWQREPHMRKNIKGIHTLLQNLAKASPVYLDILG
# Experimental: Loop mimics 5 were screened in cell survival assays to evaluate their efficacy in stimulating Trk receptors (Figure 2). Mimics were assayed for the ability to rescue cells from cell death when incubated in serum-free media (SFM) in the absence of NTs (a test for “agonism”) or in the presence of a suboptimal NT concentration (a test for NT “modulation”). Simultaneously, these assays may confirm test mimics are not cytotoxic at lower doses (though cytotoxicity assays were also performed up to higher doses, Figure S1). […] All the test compounds were screened at 50 μM concentrations initially, and then, dose response curves were measured for the hits (Table 1 and Figure 3).
# We were forced to use transfectants in different cell lines (HeLa, HEK-293, NIH-3T3 expressing TrkA, B, and C, respectively) due to difficulties in obtaining transfected cells derived from a single wild type; however, none of the cells used express TrkA-C prior to transfection. Throughout this paper, HeLa cells are denoted as “HeLa”, and their TrkA transfectants are “HeLa+A”. Similarly, HEK-293 cells are “HEK”; their TrkB transfectants are HEK+B. NIH-3T3 cells are “NIH”, and their TrkC transfectants are “NIH+C”.
# Cells were seeded at a density of 2 × 10^3 cells/well in complete media in 96-well plates and incubated for 24 h to allow cells to adhere. Cells were washed with DPBS, and then, media were swapped for serum-free media of the same type as the complete media. Cells were then treated with 50 μM compound either alone or in conjunction with suboptimal neurotrophin corresponding to the Trk receptor expressed for 48 h. Cells were washed with DPBS buffer twice and detached from the plate with 50 μL of trypsin for 3 min at 37 °C. Trypsinization was quenched with 100 μL of complete media. Cells were suspended and live cells counted using flow cytometry (CytoFLEX LX). Cell survival was normalized from cell count (CC) readings relative to optimal neurotrophin (NT = 100%) and DMSO (0%) utilizing GraphPad Prism 10.2, followed by statistical analysis via one-way ANOVA and Dunnett’s t test compared to the DMSO control. Dose response versions of this assay were conducted following the same procedure, but the data was analyzed in GraphPad Prism 10.2 using the nonlinear fit: {agonist} vs response – variable slope (four parameters) function.
# [4] = target: TrkC-expressing cells (NIH+C) (UniProt Q16288); assay: Cell survival assay in serum-free media, TrkC-expressing cells (NIH+C); type: cell-based; conditions: Figure 8 summary
# TrkC-expressing cells (NIH+C), sequence (Q16288 32-839): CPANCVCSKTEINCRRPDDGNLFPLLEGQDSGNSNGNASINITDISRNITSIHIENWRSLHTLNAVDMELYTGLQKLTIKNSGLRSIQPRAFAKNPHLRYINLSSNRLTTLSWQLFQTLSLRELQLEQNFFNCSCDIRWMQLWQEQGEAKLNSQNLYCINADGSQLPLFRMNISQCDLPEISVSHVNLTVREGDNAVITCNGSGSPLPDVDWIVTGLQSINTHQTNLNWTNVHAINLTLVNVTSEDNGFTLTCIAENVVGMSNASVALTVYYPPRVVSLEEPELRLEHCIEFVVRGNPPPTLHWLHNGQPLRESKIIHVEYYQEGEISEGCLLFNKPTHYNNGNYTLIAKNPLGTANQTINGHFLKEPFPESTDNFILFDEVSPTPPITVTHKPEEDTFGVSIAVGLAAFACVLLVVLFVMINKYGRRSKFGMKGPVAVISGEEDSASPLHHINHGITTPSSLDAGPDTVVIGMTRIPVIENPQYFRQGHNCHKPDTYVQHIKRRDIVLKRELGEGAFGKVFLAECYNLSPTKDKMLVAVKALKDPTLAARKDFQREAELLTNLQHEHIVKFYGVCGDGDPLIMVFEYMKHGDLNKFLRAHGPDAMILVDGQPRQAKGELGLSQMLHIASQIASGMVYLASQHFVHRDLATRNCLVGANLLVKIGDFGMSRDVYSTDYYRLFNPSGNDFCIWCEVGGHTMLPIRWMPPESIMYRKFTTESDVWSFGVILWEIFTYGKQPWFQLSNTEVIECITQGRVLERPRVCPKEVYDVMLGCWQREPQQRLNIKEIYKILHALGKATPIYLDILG
# Experimental: Loop mimics 5 were screened in cell survival assays to evaluate their efficacy in stimulating Trk receptors (Figure 2). Mimics were assayed for the ability to rescue cells from cell death when incubated in serum-free media (SFM) in the absence of NTs (a test for “agonism”) or in the presence of a suboptimal NT concentration (a test for NT “modulation”). Simultaneously, these assays may confirm test mimics are not cytotoxic at lower doses (though cytotoxicity assays were also performed up to higher doses, Figure S1). […] All the test compounds were screened at 50 μM concentrations initially, and then, dose response curves were measured for the hits (Table 1 and Figure 3). […]
# Cells were seeded at a density of 2 × 10^3 cells/well in complete media in 96-well plates and incubated for 24 h to allow cells to adhere. […] Cells were suspended and live cells counted using flow cytometry (CytoFLEX LX). Cell survival was normalized from cell count (CC) readings relative to optimal neurotrophin (NT = 100%) and DMSO (0%) utilizing GraphPad Prism 10.2, followed by statistical analysis via one-way ANOVA and Dunnett’s t test compared to the DMSO control. Dose response versions of this assay were conducted following the same procedure, but the data was analyzed in GraphPad Prism 10.2 using the nonlinear fit: {agonist} vs response – variable slope (four parameters) function.
# [5] = target: T1, TrkC (on NIH3T3-TrkC transfectants) (UniProt Q16288 32-839); assay: cell-based or functional assay
# T1 sequence (Q16288 32-839): as above
# [6] = target: T1, TrkC (on NIH3T3-TrkC transfectants); assay: cell-surface fluorescence binding on live cells (plate reader); serial dilution of the intrinsically fluorescent compound in serum-free media on adherent Trk-transfected cells, 2.5 h, washed with DPBS, dissolved in 1% SDS, ex 540/25 nm, em 620/40 nm; fluorescence of the Trk-negative parent cells subtracted; one site - specific binding fit; conditions: one partner purified
# [7] = target: T2, TrkA (on HeLa-TrkA transfectants) (UniProt P04629 33-796); assay: cell-based or functional assay
# T2 sequence (P04629 33-796): as the sequence (P04629 33-796) above
# [8] = target: T2, TrkA (on HeLa-TrkA transfectants); assay: cell-surface fluorescence binding on live cells (plate reader); serial dilution of the intrinsically fluorescent compound in serum-free media on adherent Trk-transfected cells, 2.5 h, washed with DPBS, dissolved in 1% SDS, ex 540/25 nm, em 620/40 nm; fluorescence of the Trk-negative parent cells subtracted; one site - specific binding fit; conditions: one partner purified
# [9] = target: T3, TrkB (on HEK293-TrkB transfectants) (UniProt Q16620 32-822); assay: cell-based or functional assay
# T3 sequence (Q16620 32-822): as the sequence (Q16620 32-822) above
# [10] = target: T3, TrkB (on HEK293-TrkB transfectants); assay: cell-surface fluorescence binding on live cells (plate reader); serial dilution of the intrinsically fluorescent compound in serum-free media on adherent Trk-transfected cells, 2.5 h, washed with DPBS, dissolved in 1% SDS, ex 540/25 nm, em 620/40 nm; fluorescence of the Trk-negative parent cells subtracted; one site - specific binding fit; conditions: one partner purified
# [11] = target: T2, TrkA (on HeLa-TrkA transfectants); assay: cell-based or functional assay; remark: listed apart in the source
# [12] = target: T1, TrkC (on NIH3T3-TrkC transfectants); assay: cell-based or functional assay; remark: listed apart in the source
molecule,measurement,setting,value
NCCCC[C@@H]1NC(=O)[C@H](CCC(=O)O)NC(=O)c2cc([N+](=O)[O-])ccc2OCC[C@@H](C(=O)NCC(=O)O)NC1=O [D3],effect in primary adult cortical neuron assay,[1],no measurable effect
same,binding to TrkC,TrkC,does not bind
same,binding to p75,p75,does not bind
COc1ccc(C2=C3C=C(S(=O)(=O)O)C4=[N+]3[B-](F)(F)n3c2cc(S(=O)(=O)O)c3SC[C@H](NC(C)=O)C(=O)N[C@@H](CC(=O)O)C(=O)N[C@@H](CCC(=O)O)C(=O)N[C@@H](CCCCN)C(=O)N[C@@H](CCC(N)=O)C(=O)N[C@H](C(N)=O)CS4)cc1 [5a(iii)m] (Ac-CDEKQC-NH2; linker 1-6 via X1; N-terminus and C-terminus assumed),result (Trk activity assigned),[2],TrkA modulator
COc1ccc(C2=C3C=C(S(=O)(=O)O)C4=[N+]3[B-](F)(F)n3c2cc(S(=O)(=O)O)c3SC[C@H](NC(C)=O)C(=O)N[C@@H](C(C)C)C(=O)N[C@@H](CO)C(=O)N[C@@H](CCCCN)C(=O)NCC(=O)N[C@H](C(N)=O)CS4)cc1 [5b(ii)] (Ac-CVSKGC-NH2; linker 1-6 via X1; N-terminus and C-terminus assumed),result (Trk activity assigned),[3],TrkB agonist
COc1ccc(C2=C3C=C(S(=O)(=O)O)C4=[N+]3[B-](F)(F)n3c2cc(S(=O)(=O)O)c3SC[C@H](NC(C)=O)C(=O)N[C@@H](CC(=O)O)C(=O)N[C@@H](CCSC)C(=O)N[C@@H](CO)C(=O)NCC(=O)N[C@H](C(N)=O)CS4)cc1 [5b(i)] (Ac-CDMSGC-NH2; linker 1-6 via X1; N-terminus and C-terminus assumed),result (Trk activity assigned),[3],TrkB agonist
CC[C@H](C)[C@@H]1NC(=O)[C@H](CC(=O)O)NC(=O)[C@@H](NC(C)=O)CSc2c(S(=O)(=O)O)cc3n2[B-](F)(F)[N+]2=C(SC[C@@H](C(N)=O)NC(=O)CNC(=O)[C@H](CCCNC(=N)N)NC1=O)C(S(=O)(=O)O)=CC2=C3c1ccc(OC)cc1 [5c(i)] (Ac-CDIRGC-NH2; linker 1-6 via X1; N-terminus and C-terminus assumed),result (Trk activity assigned),[3],TrkB/C agonist
same,result (Trk activity assigned),[4],TrkB/C agonist
COc1ccc(C2=C3C=C(S(=O)(=O)O)C4=[N+]3[B-](F)(F)n3c2cc(S(=O)(=O)O)c3SC[C@H](NC(C)=O)C(=O)N[C@@H](CCC(=O)O)C(=O)N[C@@H](CC(N)=O)C(=O)N[C@@H](CC(N)=O)C(=O)N[C@@H](CCCCN)C(=O)N[C@H](C(N)=O)CS4)cc1 [5c(iii)] (Ac-CENNKC-NH2; linker 1-6 via X1; N-terminus and C-terminus assumed),result (Trk activity assigned),[4],TrkC agonist
CENNKC (linker 1-6 via sulfonated dichloro‑BODIPY dye) [cyclo-organopeptide 5c(iii)],"EC50 of survival of NIH3T3-TrkC cells in serum-free media, with suboptimal neurotrophin (0.2 nM NT-3)",[5],900 nM
same,"EC50 of survival of NIH3T3-TrkC cells in serum-free media, without NT",[5],800 nM
same,Kd,[6],91 ± 4 nM
CDEKQC (linker 1-6 via sulfonated dichloro‑BODIPY) [cyclo-organopeptide 5a(iii)m],"EC50 of survival of HeLa-TrkA cells in serum-free media, with suboptimal neurotrophin (0.2 nM NGF)",[7],500 nM
same,"EC50 of survival of HeLa-TrkA cells in serum-free media, without NT",[7],2400 nM
same,Kd,[8],120 ± 3 nM
CVSKGC (linker 1-6 via sulfonated dichloro‑BODIPY dye) [cyclo-organopeptide 5b(ii)],"EC50 of survival of HEK293-TrkB cells in serum-free media, with suboptimal neurotrophin (0.6 nM BDNF)",[9],2800 nM
same,"EC50 of survival of HEK293-TrkB cells in serum-free media, without NT",[9],900 nM
same,Kd,[10],115 ± 66 nM
"CDIRGC (linker 1-6 via sulfonated dichloro‑BODIPY dye, flanking Cys of the CX1X2X3X4C-peptide; also called NT-3 loop (i) mimic; source: synthetic peptide (Fmoc SPPS), cyclised onto BODIPY, preparative HPLC) [cyclo-organopeptide 5c(i)]","EC50 of survival of HEK293-TrkB cells in serum-free media, with suboptimal neurotrophin (0.6 nM BDNF)",[9],2200 nM
same,"EC50 of survival of HEK293-TrkB cells in serum-free media, without NT",[9],100 nM
same,Kd,[10],43 ± 2 nM
same,Kd,[6],97 ± 4 nM
"CTQNSC (linker 1-6 via sulfonated dichloro‑BODIPY dye, flanking Cys of the CX1X2X3X4C-peptide; also called NT-3 loop (ii) mimic; source: synthetic peptide (Fmoc SPPS), cyclised onto BODIPY, preparative HPLC) [cyclo-organopeptide 5c(ii)]","IC50 of the decrease of pAKT signalling (ELFI) in PC12 cells (rat, endogenous TrkA) when competed with 10 ng/mL NT; pair blocked: NGF and TrkA",[11],7 μM
same,"IC50 of the decrease of pMAPK signalling (ELFI) in PC12 cells (rat, endogenous TrkA) when competed with 10 ng/mL NT; pair blocked: NGF and TrkA",[11],7 μM
same,IC50 of the decrease of pAKT signalling (ELFI) in NIH+C cells when competed with 10 ng/mL NT; pair blocked: NT-3 and TrkC,[12],7 μM
same,IC50 of the decrease of pMAPK signalling (ELFI) in NIH+C cells when competed with 10 ng/mL NT; pair blocked: NT-3 and TrkC,[12],35 μM
same,"EC50 of survival of HeLa-TrkA cells in serum-free media, with suboptimal neurotrophin (0.2 nM NGF)",[7],300 nM
same,"EC50 of survival of HeLa-TrkA cells in serum-free media, without NT",[7],4500 nM
same,Kd,[8],91 ± 2 nM
